Data taken from paper doi:10.1101/2023.03.24.534125 (bioRxiv, 2023).

Biological target: T1, CRISPR array binding protein 1, Cbp1 (S. solfataricus P2, SSO0454) (S. solfataricus P2, UniProt Q97ZW9 1-150)
T1 sequence (looked up): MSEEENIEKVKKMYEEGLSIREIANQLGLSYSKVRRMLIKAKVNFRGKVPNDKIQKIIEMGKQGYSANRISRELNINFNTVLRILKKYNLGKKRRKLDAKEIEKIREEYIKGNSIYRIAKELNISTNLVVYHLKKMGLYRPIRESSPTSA
Test: native gel or EMSA

B1: Cren7 (S. solfataricus, SSO6901) (natural protein, UniProt Q97ZE3 1-60, looked up)
chain: MSSGKKPVKVKTPAGKEAELVPEKVWALAPKGRKGVKIGLFKDPETGKYFRHKLPDDYPI
stoichiometry N: 2
